What was measured:
Assay in all cases: holdup assay
Set-up in all cases: key: below the threshold = too weak to quantify, mostly under pKd 3.1 to 4
MPDZ_5, O75970 = molecular target: T1, MPDZ_5, O75970
T1 sequence (O75970 695-796, limits assumed, looked up): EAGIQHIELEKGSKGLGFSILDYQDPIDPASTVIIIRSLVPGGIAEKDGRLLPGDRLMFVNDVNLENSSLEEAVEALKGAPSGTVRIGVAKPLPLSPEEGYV

GRID2IP_1, A4D2P6 = molecular target: GRID2IP_1, A4D2P6
PTPN13_1, Q12923 = molecular target: T2, PTPN13_1, Q12923
T2 sequence (Q12923 1088-1188, limits assumed, looked up): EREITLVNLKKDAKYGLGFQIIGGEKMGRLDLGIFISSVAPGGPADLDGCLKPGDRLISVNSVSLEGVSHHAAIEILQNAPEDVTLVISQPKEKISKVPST

PARD3B_1, Q8TEW8 = molecular target: T3, PARD3B_1, Q8TEW8
T3 sequence (Q8TEW8 196-299, limits assumed, looked up): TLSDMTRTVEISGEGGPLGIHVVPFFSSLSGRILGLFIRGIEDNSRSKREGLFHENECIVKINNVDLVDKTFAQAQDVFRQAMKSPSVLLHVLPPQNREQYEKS

RAPGEF6, Q8TEU7 = molecular target: T4, RAPGEF6, Q8TEU7
T4 sequence (Q8TEU7 525-625, limits assumed, looked up): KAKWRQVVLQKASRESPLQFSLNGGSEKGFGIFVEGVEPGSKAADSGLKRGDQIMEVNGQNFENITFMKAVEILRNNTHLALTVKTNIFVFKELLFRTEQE

Inadl_10, Q8NI35 = molecular target: Inadl_10, Q8NI35
DLG1_3, Q12959 = molecular target: DLG1_3, Q12959
HTRA1, Q92743 = molecular target: HTRA1, Q92743
PDZD7_3, Q9H5P4 = molecular target: T5, PDZD7_3, Q9H5P4
T5 sequence (Q9H5P4 857-944, limits assumed, looked up): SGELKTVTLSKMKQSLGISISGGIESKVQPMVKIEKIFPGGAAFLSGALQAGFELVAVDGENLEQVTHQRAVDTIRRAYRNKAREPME

GRIP2_7, Q9C0E4 = molecular target: GRIP2_7, Q9C0E4
PCLO, Q9Y6V0 = molecular target: T6, PCLO, Q9Y6V0
T6 sequence (Q9Y6V0 4491-4600, limits assumed, looked up): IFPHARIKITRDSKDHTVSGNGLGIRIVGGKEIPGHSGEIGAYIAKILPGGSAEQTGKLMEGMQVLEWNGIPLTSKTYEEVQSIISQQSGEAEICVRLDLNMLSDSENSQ

SNTB1, Q13884 = molecular target: T7, SNTB1, Q13884
T7 sequence (Q13884 107-205, limits assumed, looked up): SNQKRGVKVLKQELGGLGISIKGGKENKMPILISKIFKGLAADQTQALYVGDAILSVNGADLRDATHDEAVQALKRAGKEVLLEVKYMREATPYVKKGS

SIPA1L2, Q9P2F8 = molecular target: T8, SIPA1L2, Q9P2F8
T8 sequence (Q9P2F8 945-1036, limits assumed, looked up): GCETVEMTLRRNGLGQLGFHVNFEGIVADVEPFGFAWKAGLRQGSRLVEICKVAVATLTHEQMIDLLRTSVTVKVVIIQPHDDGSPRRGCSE

LRRC7, Q96NW7 = molecular target: T9, LRRC7, Q96NW7
T9 sequence (Q96NW7 1440-1537, limits assumed, looked up): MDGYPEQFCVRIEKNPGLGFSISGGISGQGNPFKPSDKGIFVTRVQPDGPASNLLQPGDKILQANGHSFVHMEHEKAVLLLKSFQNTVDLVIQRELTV

DLG2_3, Q15700 = molecular target: DLG2_3, Q15700
DLG1_2, Q12959 = molecular target: DLG1_2, Q12959
GOPC, Q9HD26 = molecular target: GOPC, Q9HD26
FRMPD2_2, Q68DX3 = molecular target: FRMPD2_2, Q68DX3
GIPC2, Q8TF65 = molecular target: GIPC2, Q8TF65
LIN7A, O14910 = molecular target: T10, LIN7A, O14910
T10 sequence (O14910 103-200, limits assumed, looked up): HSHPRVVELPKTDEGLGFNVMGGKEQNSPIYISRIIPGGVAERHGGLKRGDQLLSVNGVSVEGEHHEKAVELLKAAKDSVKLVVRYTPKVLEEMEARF

DLG2_2, Q15700 = molecular target: DLG2_2, Q15700
SYNJ2BP, P57105 = molecular target: T11, SYNJ2BP, P57105
T11 sequence (P57105 8-110, limits assumed, looked up): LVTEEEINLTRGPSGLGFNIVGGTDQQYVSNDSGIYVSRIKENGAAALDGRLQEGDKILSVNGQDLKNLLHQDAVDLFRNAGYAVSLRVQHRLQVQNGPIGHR

ARHGAP21, Q5T5U3 = molecular target: T12, ARHGAP21, Q5T5U3
T12 sequence (Q5T5U3 45-169, limits assumed, looked up): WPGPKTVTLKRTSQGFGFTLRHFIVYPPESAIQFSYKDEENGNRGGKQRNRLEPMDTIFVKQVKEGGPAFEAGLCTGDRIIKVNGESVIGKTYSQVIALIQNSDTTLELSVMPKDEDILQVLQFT

DLG4_3, P78352 = molecular target: DLG4_3, P78352
GRIP2_3, Q9C0E4 = molecular target: GRIP2_3, Q9C0E4
[1] = plain residues with an end cap or a label only (N-terminal biotin on a linker: ttds)
[2] = plain residues with an end cap or a label only (N-terminal biotin on a linker: ahx)
[3] = plain residues with an end cap or a label only (N-terminal biotin on a linker: ado-ado)

GRIP2_3, Q9C0E4, sequence (Q9C0E4 238-339): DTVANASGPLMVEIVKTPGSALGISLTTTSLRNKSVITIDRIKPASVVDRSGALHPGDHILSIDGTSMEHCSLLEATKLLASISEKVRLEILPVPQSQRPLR
Inadl_10, Q8NI35, sequence (Q8NI35 1673-1763): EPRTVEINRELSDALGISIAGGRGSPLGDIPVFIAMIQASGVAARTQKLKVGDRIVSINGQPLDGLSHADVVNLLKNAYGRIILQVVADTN
GRIP2_7, Q9C0E4, sequence (Q9C0E4 934-1023): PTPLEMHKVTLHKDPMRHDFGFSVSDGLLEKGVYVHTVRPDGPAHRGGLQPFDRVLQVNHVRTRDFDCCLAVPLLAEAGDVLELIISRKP
FRMPD2_2, Q68DX3, sequence (Q68DX3 944-1038): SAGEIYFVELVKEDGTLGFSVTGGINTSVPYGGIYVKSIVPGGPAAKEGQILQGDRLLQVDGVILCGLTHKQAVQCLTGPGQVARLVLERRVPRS
DLG4_3, P78352, sequence (P78352 306-403): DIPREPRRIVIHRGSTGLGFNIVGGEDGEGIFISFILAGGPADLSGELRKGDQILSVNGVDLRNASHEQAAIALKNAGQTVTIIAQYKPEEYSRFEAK
DLG1_2, Q12959, sequence (Q12959 314-412): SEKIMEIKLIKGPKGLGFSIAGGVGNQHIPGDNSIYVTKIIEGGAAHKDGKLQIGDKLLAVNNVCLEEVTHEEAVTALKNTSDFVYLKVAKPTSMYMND
HTRA1, Q92743, sequence (Q92743 360-477): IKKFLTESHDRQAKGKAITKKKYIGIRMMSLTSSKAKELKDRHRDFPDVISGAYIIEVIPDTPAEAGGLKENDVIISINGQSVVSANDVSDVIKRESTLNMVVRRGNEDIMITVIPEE
DLG1_3, Q12959, sequence (Q12959 457-571): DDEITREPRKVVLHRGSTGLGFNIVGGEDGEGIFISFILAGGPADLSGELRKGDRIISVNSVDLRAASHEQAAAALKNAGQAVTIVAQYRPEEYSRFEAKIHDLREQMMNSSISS
GIPC2, Q8TF65, sequence (Q8TF65 112-203): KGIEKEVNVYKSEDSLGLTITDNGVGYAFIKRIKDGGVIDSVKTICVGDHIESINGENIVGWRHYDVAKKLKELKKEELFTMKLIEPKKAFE
GRID2IP_1, A4D2P6, sequence (A4D2P6 1-87): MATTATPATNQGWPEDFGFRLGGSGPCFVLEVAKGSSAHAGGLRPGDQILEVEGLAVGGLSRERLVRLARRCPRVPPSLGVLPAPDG

Binder: RTRQRNETQV [HPV51-E6, P26554]
- pKd (MPDZ_5, O75970; [1]): below the threshold
- pKd (GRID2IP_1, A4D2P6; [1]): below the threshold
- pKd (PTPN13_1, Q12923; [1]): below the threshold
- pKd (PARD3B_1, Q8TEW8; [1]): below the threshold
- pKd (RAPGEF6, Q8TEU7; [1]): below the threshold
- pKd (Inadl_10, Q8NI35; [1]): below the threshold
- pKd (DLG1_3, Q12959; [1]): 4.54
- pKd (HTRA1, Q92743; [1]): below the threshold
- pKd (PDZD7_3, Q9H5P4; [1]): 3.88
- pKd (GRIP2_7, Q9C0E4; [1]): 3.48
- pKd (PCLO, Q9Y6V0; [1]): below the threshold
- pKd (SNTB1, Q13884; [1]): 4.09
- pKd (SIPA1L2, Q9P2F8; [1]): below the threshold
- pKd (LRRC7, Q96NW7; [1]): below the threshold
- pKd (DLG2_3, Q15700; [1]): 4.75
- pKd (DLG1_2, Q12959; [1]): 5.13
- pKd (GOPC, Q9HD26; [1]): 3.72
- pKd (FRMPD2_2, Q68DX3; [1]): 3.41
- pKd (GIPC2, Q8TF65; [1]): 3.63
- pKd (LIN7A, O14910; [1]): below the threshold
- pKd (DLG2_2, Q15700; [1]): 4.97
- pKd (SYNJ2BP, P57105; [1]): 5.02
- pKd (ARHGAP21, Q5T5U3; [1]): below the threshold
- pKd (DLG4_3, P78352; [1]): 4.75
- pKd (GRIP2_3, Q9C0E4; [1]): below the threshold

Binder: QGRWDHETIV [TMEM215, Q68D42]
- pKd (MPDZ_5, O75970; [2]): below the threshold
- pKd (GRID2IP_1, A4D2P6; [2]): below the threshold
- pKd (PTPN13_1, Q12923; [2]): below the threshold
- pKd (PARD3B_1, Q8TEW8; [2]): 3.57
- pKd (RAPGEF6, Q8TEU7; [2]): below the threshold
- pKd (Inadl_10, Q8NI35; [2]): 3.64
- pKd (DLG1_3, Q12959; [2]): 3.68
- pKd (HTRA1, Q92743; [2]): 5
- pKd (PDZD7_3, Q9H5P4; [2]): 4.97
- pKd (GRIP2_7, Q9C0E4; [2]): below the threshold
- pKd (PCLO, Q9Y6V0; [2]): below the threshold
- pKd (SNTB1, Q13884; [2]): 4.95
- pKd (SIPA1L2, Q9P2F8; [2]): below the threshold
- pKd (LRRC7, Q96NW7; [2]): 3.76
- pKd (DLG2_3, Q15700; [2]): 4.53
- pKd (DLG1_2, Q12959; [2]): 4.81
- pKd (GOPC, Q9HD26; [2]): 3.99
- pKd (FRMPD2_2, Q68DX3; [2]): 4.4
- pKd (GIPC2, Q8TF65; [2]): 3.81
- pKd (LIN7A, O14910; [2]): below the threshold
- pKd (DLG2_2, Q15700; [2]): 4.07
- pKd (SYNJ2BP, P57105; [2]): 4.14
- pKd (ARHGAP21, Q5T5U3; [2]): below the threshold
- pKd (DLG4_3, P78352; [2]): 3.64
- pKd (GRIP2_3, Q9C0E4; [2]): below the threshold

Binder: TETASVCTKV [SLC23A1, Q9UHI7]
- pKd (MPDZ_5, O75970; [3]): below the threshold
- pKd (GRID2IP_1, A4D2P6; [3]): 3.97
- pKd (PTPN13_1, Q12923; [3]): below the threshold
- pKd (PARD3B_1, Q8TEW8; [3]): 3.61
- pKd (RAPGEF6, Q8TEU7; [3]): below the threshold
- pKd (Inadl_10, Q8NI35; [3]): 3.78
- pKd (DLG1_3, Q12959; [3]): below the threshold
- pKd (HTRA1, Q92743; [3]): 3.73
- pKd (PDZD7_3, Q9H5P4; [3]): 4.63
- pKd (GRIP2_7, Q9C0E4; [3]): below the threshold
- pKd (PCLO, Q9Y6V0; [3]): below the threshold
- pKd (SNTB1, Q13884; [3]): 4.17
- pKd (SIPA1L2, Q9P2F8; [3]): below the threshold
- pKd (LRRC7, Q96NW7; [3]): below the threshold
- pKd (DLG2_3, Q15700; [3]): below the threshold
- pKd (DLG1_2, Q12959; [3]): 4.4
- pKd (GOPC, Q9HD26; [3]): 4.17
- pKd (FRMPD2_2, Q68DX3; [3]): 3.93
- pKd (GIPC2, Q8TF65; [3]): 3.6
- pKd (LIN7A, O14910; [3]): below the threshold
- pKd (DLG2_2, Q15700; [3]): 3.99
- pKd (SYNJ2BP, P57105; [3]): below the threshold
- pKd (ARHGAP21, Q5T5U3; [3]): 3.94
- pKd (DLG4_3, P78352; [3]): below the threshold
- pKd (GRIP2_3, Q9C0E4; [3]): below the threshold

Binder: DPRNTQTSQI [ABRAXAS2, Q15018]
- pKd (MPDZ_5, O75970; [1]): below the threshold
- pKd (GRID2IP_1, A4D2P6; [1]): below the threshold
- pKd (PTPN13_1, Q12923; [1]): below the threshold
- pKd (PARD3B_1, Q8TEW8; [1]): 3.69
- pKd (RAPGEF6, Q8TEU7; [1]): below the threshold
- pKd (Inadl_10, Q8NI35; [1]): 3.52
- pKd (DLG1_3, Q12959; [1]): 3.52
- pKd (HTRA1, Q92743; [1]): 3.64
- pKd (PDZD7_3, Q9H5P4; [1]): 4.31
- pKd (GRIP2_7, Q9C0E4; [1]): 3.55
- pKd (PCLO, Q9Y6V0; [1]): 3.66
- pKd (SNTB1, Q13884; [1]): 3.96
- pKd (SIPA1L2, Q9P2F8; [1]): below the threshold
- pKd (LRRC7, Q96NW7; [1]): below the threshold
- pKd (DLG2_3, Q15700; [1]): 3.53
- pKd (DLG1_2, Q12959; [1]): 3.84
- pKd (GOPC, Q9HD26; [1]): 4.13
- pKd (FRMPD2_2, Q68DX3; [1]): below the threshold
- pKd (GIPC2, Q8TF65; [1]): 3.54
- pKd (LIN7A, O14910; [1]): below the threshold
- pKd (DLG2_2, Q15700; [1]): below the threshold
- pKd (SYNJ2BP, P57105; [1]): 3.68
- pKd (ARHGAP21, Q5T5U3; [1]): below the threshold
- pKd (DLG4_3, P78352; [1]): below the threshold
- pKd (GRIP2_3, Q9C0E4; [1]): 3.6

From paper PMC9482650, “Quantitative fragmentomics allow affinity mapping of interactomes” (Nature Communications, 2022)
